# Measurements from the NTF2 design screens of Basanta et al. (2020).
# Experiment: protease stability score; higher = more stable; yeast display proteolysis, trypsin and chymotrypsin;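 note: relative to predicted unfolded state with 0 unfolded-like and 1 meaning tenfold more protease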
row,Sequence,protease stability score
1,DEDRESMLEHFRLLVEQTKTGNEESTEENIDPHVRLIFNGQEYHGRHEVARYLVEIWRRVDHVRIHLTHMEVYDGVMEIHGQYHLDFDGRHVTHEFRIIFTKVDGRWRIHELRVQ,1.38
2,SEDKNAVHEIVERFLKAMLTGDEHILKTLLDPHVRLHIGDKSRVGMERVIHELIHIRIHELRVESMEMRLWDGRAEVHVFGEVRQRVDGQERNITTSIILHIEKIDGRWHLTQLQFIIS,2.53
3,DDWEEVTRRSVEEFIRAIDTGDEDFLRTMVDPDTRVEINGVEVHGMEELMRLFSEHIKKVKNIRFHLEIRHVESQGDKIRIEGHEESNVDGRHRKKSTEMHWIKVDGRWFLHRVILR,1.39
4,SEDEELVRRAVHRFIKLLETGDWDKIQNNVDPHVRLHVDGVDFIGRELFIHWVDRVKGMRHDIRDVRIEFHGDKAHIDMVTELEIGDKRRETRVHLVMRKINGRWIIESEEYRII,2.64
5,NEEEEESKWAYEEMIKVVKTGDEERLKELADPHTRVHMLVNGRLHNLHGREFLVLAWRLLGFDHLELKRMHVEVVNGRVHINLHGHVEINGRTHTLHIHIDAEKVDGRWIVRRVEIRSE,1.5
6,DEDEDHVRDMIEVFVRLMITGDEDTFKNLADPHVQFHFENVKLHGRHALLEWLRRLNREFKNIRVQILVHHVEVQGEKATVHSHIVVHVGDKTEHYDTELHIIVIDGRIKTVIIKRK,1.5
7,SEDDNMAEHVLRYFIEHHLTGDFDSILKLMDPNMRLEVNGREHWGRKRWSEHLLRMGFDHVDIEEHRINSYGNFAYEIIHGRYHINGQEINITLIINVEKVNGKWIIREVTIVKR,1.74
8,DEETKETIELMEKFRQDEETGDWRSLHRMADPHTKLVVDGREYHGMEHATTYLVEFIEHFGVKHFHIEDSHVVDGRIVLHTRVEVGDKSREIRIVALKINGVWLMQSIEIG,0.102
9,SEDEELAKEFAETMLHWEITGNEEAIRRNMDPNTKLDINGQHYIGRDDVLRVWHEIKKRLGVDHLEIHHIRVSVIGDKIRIEIDGHIRVNGREIETHIVIITEKINGKWIIRSMRYEFK,1.24
10,SEEEEHWHTLAHMIVHWWLTGDEDAFMELADPHVRFEQGDYESVGMENVRERWRMIKEEIRIHEIRVHDVRFINGVIEVDTRLIRTFNGVREEVDYRVEIVEYNGRVKRVKLEIR,1.33
11,SEKEERALELIKRFWESELTGNEDWLRHLADPDYLYILLIDGKEHNFHGMETWYEKINRIKGVQIDHLEIRHENVIGDKVEIDGRMDITVNGKRIDKRVELQYSVVDGRFKSVKITNI,0.809
12,EEEEESVQRAMERILHALQTGDWHTLSRMADPHVKLLVNGVELHGMEKIEEFLKKLLEELGVDKIDVRLHDFHTFNGVVHVDVRSHFNGRTHREEWVLLKVNGRWSLKEVRTE,1.44
13,SHEEEIAREISRDLFRAFLTGDEDWLLKNLDPDARLHVSVGDKSEHFHGREEVMKFVREWRVHRIEIKELRVFNGRIHSRVHVYGEFNGQRFRTDIHENYNIVDGRIKEIHVEIR,1.66
14,DEHEDHVLEVFRIILEILLTGDFREWRRLADPTVRLEFNGREYHGRDEILEFLTQHIRHWRLKHIHIDNYEVYDGRIEVHGHIRFTFNGKEHIIETRIIINVFDGRLHDEQYITH,1.53
15,DEEEKHSEDIADLMLRWWLTGDFELLAKYADPRVRLDINGREFHGREEYEEVMKDLIRRFKNVKIEIRDYEIQGEKVHVDTRLHINGKTHTVHLTFVVIDGVIKSESIRVR,1.27
16,HEDKKSLEDFLELLLHAIATGDEEILRHLLDPNVRLDIDGRHVVGREELLRWFREIRVKRSDIRIDHFHVQGDKIHADVTDLYDGEFNGKRHLMVLKTELILVKFNGRWHIRTMHFH,2.23
17,HEREEWSENAFRMILRSLMTGDERTLYELADPNVRLDVNGQDYHGREDFLHFYTHFLFRADHVELILRRERPVGDKLELDGELVSRVGDKTHHVEVRIVLWKVNGRWLIHSVYII,1.81
18,DEEKKLAHKIARILMDLFLTGNEEVWKELMDPHVKFEIGDFIDHGWEAVKRYYEVLGFDHIQETDLESIVIFENHVILHIRIHGEVNGRQVDTTVTLFIEKINGKWYIRTIRIH,2.5
19,DEEERLQEELTKRLIHDFETGDFEAILELFDPHVRVFVNGKDDHGWEMLERSWREMGIDHMQIRDFELHHINGRLEVRIRTEIRVGDKTMDTIIILNVQKYDGRWRIHKVEITIR,1.24
20,DEDQEEANHLIDLFIASLNTGDWEIIDHMADPHVKFRSVVNGKREKHIGREEMIRWFEEIEERFGYENFHVRYQRFEVQGEKMNTDITIEWNGRRFRSIILLHVFNGKLKSMEIIDI,1.25
21,DREEEHTRTLAKELFEIFLTGDFDRFSELADPNTRLRIIINGVEFRDHGMEFWQWWVDEIRIHSYRMRDMRVFNGQAILLSTSDVEFNGRRHETTVEFVLVIVNGRIKSVTIIVR,1.69
22,NEDEEAHHKLIKEYSRLVDTGDWRSLRRYLDPDYRLRVDGVDIVGRDELHRILEQMLDRVDHLHLNIERHRIQGDFLISDVKHHYEFNGKHVERKVIIYIWKFDGRWIMRYTEVL,1.02
23,SEEEEQVKEFIERWITMVKTGDEDFARKMADPNVRIEIGDKILHGRENMEHYMRRVIDEWRITHIHVNDSKVYGEYIVNEVHIHVRQGDKHHTINWELHVKKVNGRWRLQNVHFG,2.24
24,DELEKLLRYWLREFFDALLTGDEEIFTRYMDPEARLIVDGVEYHGREEVLKHLRDKLREIRIKDYVIHSLDFVNGRIHVDVRQDVVIGEKREKTRLHIHIDVIDGKNHELDIEWR,2.1
25,SEMHEDAEEVLRRISHYLNTGDEDSFLEMADPHTRIRVGNKEYIGREWSLVLIEKVKGARQEIRIELKDVNLVNGRLEVDGRFRLHYRFNGKTVDEHRNVIVYSYKFNGRWEIKSEQVD,1.49

row,Sequence,protease stability score
1,SEEEKRARIASELLFEYLHTGDETLWEELMDPDVRLEINGRLFHGMDSFRHALEIWLKEIRLRDMRVRELHVIGDKIHVNSEDEVEVNGRVVNYESRLDMEKIDGRWRIKRTSIK,1.19
2,SEEQRLSEELFKRLVDYLLTGDWHSLKELLDPHVKVVVNGKEEIGRERMARHWLELHEKVPNMKSEFRLRYYEIQGDKAHYEVEIILHVNGRIRHIDIEVVMEKVDGRWMLHSITIR,1.3
3,SEEEQDIKHFLELIERTHHTGDEKLFRDLFDPNVRLHVGDKNMHGREKALERWRLLGYEIKHLRWRDFRIFDGRVTAHGEMEGQVNGQKIKRDVEIVLVKIDGQWFIEEERVR,1.57
4,SEREESFEKWVEMYERALQTGDEEHISRLMDPNARSNINGVELHGREQTLEWLRHVKENLGVERVDVRVNLHRYRVIGNYIESDQELILIYNGREFRFHFHFIARKINGRWVVDRLEIK,2.51
5,DHVEKEARKFEKLLRHAETTGDEELYLKMIDPNVRIIIGEKNLVGREEVEKWLQTLGVSKVEIRHVEEKDIEIDEDHIRIHGRIIGRYNGKERDFEKHIIVQKIDGKWVLHTEEIR,0.385
6,SEDEHHSREFLRVTEEILQTGDEEKREKNADPHMRFVLVYNGRETIIHGRETVVHFIHEELQRLGWDRFRVETERMSVYNGVVHIDIRIFVGDKTIHWHEHAKKVNGRWVYKSVEIRRE,1.03
7,DDMHRELRKLAEEIEKLIETGDEDRLRTLLDPHTRVEIGDWSDMGWDAIHKMIRHIRIDSVTIRREHFFNGRVHTDIEVDGTIGDKKDIRHVELEIVIVDGRVKEIKMIYV,2.13
8,SEEETRLEKYLRILLEMWKTGNEEWMFKYADPDARLQVGDKEFHGREHIMKFLKDWLDKAGVKHEEDRREEYIGDKLRVDSERNVNGVENRVILIFVVINGRYREFIIIIR,1.47
9,SEDEKNHKIAMRILRRVIETGDERELEELADPDVRIVIGDKFHVGRDVWHEWAHRFDHTHHIEVKDHRHFDGRITLDTEVDVHIDGRRSRMRVIIIARKVDGVWFLHELRIH,1.31
10,DEDTEKAEKFVHSFLMAMLTGDEEELWKYLDPRVRTIIGDKHYHGREQTKKAWEELGIDHSDVERFHVHIQGDKVEVHIDLRVHVNGRSYDVHIILIVTKINGKWYIDTLIFRKV,1.44
11,DEEHREAREAVEDDLRELITGNWDMLRRNLDPRMRLNIDGQDIHGRESVHKRWVELMEELGIDHLELHRVDVIDGRIHTDGHERVDGKHIKVLIVAVKINGRWIIKRLHVH,0.675
12,DEEEKRVIHIINLVEHALETGDEDLYKNLLDPDPIYNINGRILHGREFWLEFLHHMRESIEISHWHDVRSQGDKVTVHAKTTFLIRIGDKVDRVETEVRIIIVKINGRWLLHEIHHH,0.849
13,DEEQNHFFESIKELTHSWRTGDEERVTKLADPNVRLEINGRDIVGMERFSKLMIELRVHDLKIHRIRVVNGKVESDIEMHIHQGDKHSVTETHIFARKVDGKWILESIRIG,1.07
14,DKDDHDFERVLRIFIESIRTGDEDSIRRLADPSVKHVVNGKEFHGREDWEEMIRRIDHIRDFELKSVSIYNGKIEVDGVLTGIFNGREDKTHVHIIMMKVNGRWYIKSWELK,1.93
15,SEEERATEYVLSMLLHLLRTGDEDALFEMADPRYRFIYGEKEKVGRHVIHEFITHLRIDDFRLRRLEIQGDKIITDGEMYGTINGQHETRRVILIMRKINGRWFLESIEIR,1.7
16,NEEEHELELAYRWYEESILTGDEDELTHLLDPHVRLQYGDKEFHGREIVLHFFHKHWREMGAKYIEVHSISLYGDKIVFDSTLHINGRTHRVHVTSRKVDGRWRIRSMRIN,1.63
17,DEEEHWLKHWTDLHLFARITGDEELLMKMLDPDVRFHIGDKESHGREEVARLLIELWIHNQHVRRRIIVNGVSHIHGELDGEINGVRHRTEIEIHILVIDGRIHEIIIKVH,1.24
18,DEMEETTERITRLIHHYHRTGDWRLLSDLFDPHAKSEVNGVRLHGWHEMREFFENEMRELGIENVRFRYHLHDYRIFDGRVDLDVRLEIRIGDKEDHMESHIHTEKVNGQWRLRTLSLN,0.412
19,DEEEKYVEDIAREFLHAMRTGDEEWNKELADPHVRMHLHQGDYILNLHGRDLFTRVIRYLVDQWRLEIRIENFDSIGNKIEVHGTIILKQGDKSIKRKSIIHIDVVNGRLKEVHIHLQ,0.152
20,SEEEKRAKKLIEIFMESIETGDWKEIHRMMDPTTRLEQGDYEHHGRDEIRELWLQELLDLGVERIRVKVHHVDVIDGKAHVDVTIHFNGVTQRRHYVIVKIDGRWMIKLVIIR,1.81
21,DEDTKASELAIEILIKILLTGDEDSLNHLFDPNVRLEVGDKQMHGMESMVKFQRHWRVNHTIVKRMEIINIGDKMHIHLVGHINGDFNGKTSEHESHVHILNEKVNGRWLIRSMEIEIR,1.62
22,SEEHRDVAKVIHDWFHDTITGDFKTLERLMDPNARLRINGQEFHGREEVRKFLERLLRHWREHSVEIEDINVQGDKASVHSHIDGEIDGRRIRMRSIFIILKFDGQWLMHSVIVE,2.68
23,SELEELVKRILKFILHSWDTGDEEFDKHMADPNVRVIYNGVDLHGMHTKDDLIKRLGWEQESRIRSIRAIGEKAHMDVELVWRFDGQQRDHDTRVHLDIVNGRSKNMEIRFK,0.165
24,DDTKKHMEKIFRLMIEWWETGDFDRMENNADPHVRAHIGDKEIHGREEMIKLIRELIEELGIDHEETEEVRVYDGRIHVHSRLHINGKEIEVQLHSQVVDGRIESFELHVITR,1.05
25,DEDKEEAVRIIHEWSHAVFTGDFERELRLADPNVRLIINGRDFHGWHSLRELLNHMRLKTHHTDVKRSRSQGDFVEIDGLFNFTIHFNGRDLNVITDVKVVINKIDGRWKIESVHYE,1.18
